Test results from US10100114B2, “Antibodies specific for TROP-2 and their uses” (RINAT NEUROSCIENCE CORP., priority 2011, dated 2018).

Columns and labels:
[1] = tested on: SW620 cells (Trop-2 non-expressing); experiment: Cytotoxicity of ADCs (CellTiter-Glo), SW620; format: cell-based; settings: Table 13; SW620, Trop2 expression −; 96 hours; concentration of total Ab
Procedure: Target expressing (A431, BxPC3, CAPAN-2 and Colo205) or non-expressing (SW620) cells were seeded on white walled clear bottom plates at 2000 cells/well for 24 hours before treatment. Cells were treated with 4 fold serially diluted antibody-drug conjugates in triplicates. Cell viability was determined by CellTiter-Glo® Luminescent Cell Viability Assay 96 (Promega, Madison Wis.) 96 hours after treatment. Relative cell viability was determined as percentage of untreated control. IC50 was calculated by Prism software.
2-methylalanyl-N-[(3R,4S,5S)-3-methoxy-1-{(2S)-2-[(1R,2R)-1-methoxy-2-methyl-3-oxo-3-{[(1S)-2-phenyl-1-(1,3-thiazol-2-yl)ethyl]amino}propyl]pyrrolidin-1-yl}-5-methyl-1-oxoheptan-4-yl]-N-methyl-L-valinamide is a novel auristatin, as described in U.S. Application Nos. 61/561,255 and 61/676,423. Method of conjugating Trop-2 antibodies using transglutaminase tags is described in Example 9. Target expressing or non-expressing (SW620) cells were seeded on white walled clear bottom plates at 2000 (A431, BxPC3, NCI-H292, NCI-H1650, MDA-MB-468 and SW620), 2500 (Calu-3) or 3000 (OVCAR3 and SKBR3) cells per well for 24 hours before treatment. Cells were treated with 4 fold serially diluted antibody-drug conjugates in triplicates. Cell viability was determined by CellTiter-Glo® Luminescent Cell Viability Assay 96 (Promega, Madison, Wis.) 96 hours after treatment. Relative cell viability was determined as percentage of untreated control. IC50 was calculated by GraphPad Prism 5 software and expressed as concentration (nM) of total Ab.

BxPC3 xenograft = experiment: In vivo efficacy of humanized Trop-2 ADCs, pancreatic tumor BxPC3 xenograft model; design: species or system CB17/SCID mice; settings: single dose, tail vein; FIGS. 9A-9C
Procedure: In vivo efficacy studies of Trop-2 ADCs were performed with target-expressing BxPC3 xenograft model. Two million BxPC3 pancreatic cancer cells were implanted subcutaneously into 5-8 weeks old CB17/SCID mice until the tumor sizes reached between 300-400 mm^3. […] Tumor volume was measured once a week by a Caliper device and calculated with the following formula: Tumor volume=(length×width^2)/2. Studies were terminated before their tumor volumes reached 2000 mm^3.

Colo205 xenograft = experiment: In vivo efficacy of Trop-2 ADCs, colorectal tumor Colo205 xenograft model; design: species or system nu/nu mice; settings: single dose of 6 mg/kg, tail vein; FIG. 10
Procedure: In vivo efficacy study of Trop-2 ADCs was performed with target-expressing colo205 xenograft model. Three millions of colo205 colon cancer cells were implanted subcutaneously into 5-8 weeks old nu/nu mice until the tumor sizes reached ˜300 mm^3. […] Tumor volume is measured once a week by a Caliper device and calculated with the following formula: Tumor volume=(length×width^2)/2. Studies were terminated before their tumor volumes reached 2000 mm^3.

[2] = tested on: ovarian cancer patient derived xenograft (PDX Ova196756); experiment: In vivo efficacy of Trop-2 ADC, ovarian PDX Ova196756; design: species or system CB17/SCID mice; settings: single dose, […] and 1.5 mg/kg, tail vein; FIG. 11
Procedure: This tumor sample was derived from surgical specimen and propagated in NSG mice (Jackson Laboratories, Bar Harbor, Me.). For efficacy studies, approximately 1-2 mm^3 of tumor fragments were implanted subcutaneously into the lateral flanks of CB17/SCID mice. […] Tumor volume was measured once a week by a caliper device and calculated with the following formula: Tumor volume=(length×width^2)/2. Studies were terminated before their tumor volumes reached 2000 mm^3.

[3] = tested on: pancreatic cancer patient derived xenograft (PDX Pan0146); experiment: In vivo efficacy of Trop-2 ADC, pancreatic PDX Pan0146
Procedure: In vivo efficacy studies of Trop-2 ADC using humanized anti-Trop-2 antibody (h7E6SVG) conjugated with TG6-vc0101 were performed with target-expressing pancreatic cancer patient derived xenograft model (PDX Pan0146) from Jackson Laboratories (Bar Harbor, Me.). For efficacy studies, 1-2 mm^3 of tumor fragments were implanted subcutaneously into the lateral flanks of the animals. […] Gemcitabine was given at 75 mg/kg twice weekly for a total of 6 doses. […] Gemcitabine was given once weekly at 75 mg/kg for 4 doses. Tumor volume was measured once a week by a Caliper device and calculated with the following formula: Tumor volume=(length×width^2)/2. Studies were terminated before their tumor volumes reached 2000 mm^3.

[4] = tested on: pancreatic cancer patient derived xenograft (PDX Pan144607); experiment: In vivo efficacy of Trop-2 ADC, pancreatic PDX Pan144607; design: species or system CB17/SCID mice; settings: single dose of 1.5, 3.0 and 6.0 mg/kg, tail vein; FIG. 13
Procedure: In vivo efficacy study of Trop-2 ADC using humanized anti-Trop-2 antibody (h7E6SVG) conjugated with vc0101 or PEG6MMAD was performed with target-expressing pancreatic cancer patient derived xenograft model (PDX Pan144607). This tumor sample was derived from surgical specimen and propagated in NSG mice (Jackson Laboratories, Bar Harbor, Me.). For efficacy studies, approximately 1-2 mm^3 of tumor fragments were implanted subcutaneously into the lateral flanks of CB17/SCID mice. Animals were randomized by tumor sizes once they reached ˜300 mm^3, and single dose of 1.5, 3.0 and 6.0 mg/kg h7E6SVG-N297Q/K222R-PEG6MMAD and the control conjugate were administered through bolus tail vein injection. Tumor volume was measured once a week by a Caliper device and calculated with the following formula: Tumor volume=(length×width^2)/2. Studies were terminated before their tumor volumes reach 2000 mm^3.

[5] = tested on: pancreatic cancer patient derived xenograft (PDX Pan0135); experiment: In vivo efficacy of Trop-2 ADC, pancreatic PDX Pan0135; settings: 6 mg/kg single dose, tail vein; FIG. 14
Procedure: In vivo efficacy study of Trop-2 ADC using humanized anti-Trop-2 antibody (h7E6SVG) conjugated with PEG6MMAD was performed with target-expressing pancreatic cancer patient derived xenograft model (PDX Pan0135) from Jackson Laboratories. For efficacy studies, approximately 1-2 mm^3 of tumor fragments were implanted subcutaneously into the lateral flanks of the animals. Animals were randomized by tumor sizes once they reached ˜300 mm^3 and 6 mg/kg of h7E6SVG-N297Q/K222R-PEG6MMAD and the control conjugate were administered through bolus tail vein injection with single dose. Tumor volume was measured once a week by a Caliper device and calculated with the following formula: Tumor volume=(length×width^2)/2. Studies were terminated before their tumor volumes reached 2000 mm^3.

B1: h7E6SVG-TG6-vc0101: h7E6SVG with heavy chain C-terminal TG6 tag (SEQ ID NO: 79) conjugated with AcLys-vc-PABC-0101 (conjugate)
VH: QVQLQESGPGLVKPSETLSLTCTVSGGSISSYGVHWIRQPPGKGLEWIGVIWTSGVTDYNSALMGRVTISVDTSKNQFSLKLSSVTAADTAVYYCARDGDYDRYTMDYWGQGTLVTVSS
VL: DIVMTQSPDSLAVSLGERATINCRASKSVSTSGYSYMHWYQQKPGQPPKLLIYLASNLESGVPDRFSGSGSGTDFTLTISSLQAEDVAVYYCQHSRELPYTFGQGTKLEIK
- IC50 [1]: 156 nM
- tumor response, BxPC3 xenograft (BxPC3 xenograft): tumor regression
- tumor response, Colo205 xenograft (Colo205 xenograft): tumor regression
- tumor response, ovarian PDX Ova196756 [2]: tumor regression
- tumor response on continuous dosing, Pan0146 PDX ([3]; […] weekly x4, 1.5 mg/kg bi-weekly x2 or 3.0 mg/kg single dose, FIG. 12B): sustained tumor regression
- efficacy to induce tumor regression compared with gemcitabine, Pan0146 PDX ([3]; single dose vs gemcitabine 75 mg/kg twice weekly, 6 doses, FIG. 12A): superior efficacy to gemcitabine

B2: h7E6SVG-N297Q/K222R-PEG6MMAD: h7E6SVG with N297Q/K222R mutations conjugated with PEG6-propionyl-MMAD (conjugate)
VH: QVQLQESGPGLVKPSETLSLTCTVSGGSISSYGVHWIRQPPGKGLEWIGVIWTSGVTDYNSALMGRVTISVDTSKNQFSLKLSSVTAADTAVYYCARDGDYDRYTMDYWGQGTLVTVSS
VL: DIVMTQSPDSLAVSLGERATINCRASKSVSTSGYSYMHWYQQKPGQPPKLLIYLASNLESGVPDRFSGSGSGTDFTLTISSLQAEDVAVYYCQHSRELPYTFGQGTKLEIK
- IC50 [1]: > 267 nM
- tumor response, BxPC3 xenograft (BxPC3 xenograft): tumor regression
- tumor response, Pan144607 PDX [4]: tumor regression
- tumor response, Pan0135 PDX [5]: tumor regression
